From patent publication US20190367612A1 (Daiichi Sankyo, published 2019) come the findings set out here.

One experiment has as its target T1, human GPRC5D (human, UniProt Q9NZD1 1-345).
T1 construct: whole, on cells; also called hGPRC5D; G-protein coupled receptor family C group 5 member D
As to the kind of experiment: flow cytometry on A4/Fuk cells (endogenous human GPRC5D), Penta-His Alexa Fluor 488 detection, rMFI = MFI minus sample without antibody. On the procedure: Lymphoma cell line A4/Fuk cells (JCRB Cell Bank) were adjusted to an appropriate concentration with PBS containing 5% FBS. LIVE/DEAD Fixable Near-IR Dead Cell Stain Kit was added to the cells, which were then left standing at 4° C. for 30 minutes. The cells were washed twice with PBS containing 5% FBS, then adjusted to a concentration of 1×10⁶ cells/mL with PBS containing 5% FBS, inoculated in an amount of 100 μL/well to a 96-well U-bottomed microplate, and centrifuged to remove a supernatant. Each anti-GPRC5D-anti-CD3 bispecific molecule (C2037-C3E7034 to C3022-C3E7036 prepared in Example 12) diluted with PBS containing 5% FBS were added thereto in an amount of 100 μL/well, and the plate was left standing at 4° C. for 60 minutes. The cells were washed twice with PBS containing 5% FBS. Then, Penta-His Alexa Fluor 488 diluted with PBS containing 5% FBS was added thereto in an amount of 30 μL/well, and the plate was left standing at 4° C. for 30 minutes. The cells were washed twice with PBS containing 5% FBS and then resuspended in PBS containing 5% FBS, followed by detection using a flow cytometer (FACSCanto™ II). The data was analyzed using Flowjo. The mean fluorescence intensity (MFI) of Alexa Fluor 488 in a fraction free from dead cells was calculated. The MFI value of the antibody-unsupplemented sample was subtracted from the MFI value of the antibody-supplemented sample to calculate a relative value of MFI (rMFI).
In general terms: In flow cytometry, cells or beads pass a laser one at a time.

The target in the next experiment is T2, human CD3 (human, UniProt P07766 23-207).
T2 construct: CD3 complex on human PBMC; also called human CD3 (PBMC); human CD3-expressing cells
As to the kind of experiment: flow cytometry on human PBMC (dead and CD19-positive cells excluded), Penta-His Alexa Fluor 488 detection, rMFI = MFI minus sample without antibody. On the procedure:
Commercially available human PBMC (Cellular Technology Limited) was adjusted to an appropriate concentration with PBS containing 5% FBS. LIVE/DEAD Fixable Near-IR Dead Cell Stain Kit (Thermo Fisher Scientific Inc.) and an anti-CD19 antibody (Beckman Coulter Inc.) were added to the cells, which were then left standing at 4° C. for 30 minutes. The cells were washed twice with PBS containing 5% FBS, then adjusted to a concentration of 1×10⁶ cells/mL with PBS containing 5% FBS, inoculated in an amount of 100 μL/well to a 96-well U-bottomed microplate, and centrifuged to remove a supernatant. Each anti-GPRC5D-anti-CD3 bispecific molecule (C2037-C3E7034 to C3022-C3E7036 prepared in Example 12) diluted with PBS containing 5% FBS were added thereto in an amount of 100 μL/well, and the plate was left standing at 4° C. for 60 minutes. The cells were washed twice with PBS containing 5% FBS. Then, Penta-His Alexa Fluor 488 (Qiagen N.V.) diluted with PBS containing 5% FBS was added thereto in an amount of 30 μL/well, and the plate was left standing at 4° C. for 30 minutes. […] The data was analyzed using Flowjo (Tree Star, Inc.). The mean fluorescence intensity (MFI) of Alexa Fluor 488 in a fraction free from dead cells and CD19-positive cells was calculated. […]

T2 sequence (P07766 23-207 limits assumed): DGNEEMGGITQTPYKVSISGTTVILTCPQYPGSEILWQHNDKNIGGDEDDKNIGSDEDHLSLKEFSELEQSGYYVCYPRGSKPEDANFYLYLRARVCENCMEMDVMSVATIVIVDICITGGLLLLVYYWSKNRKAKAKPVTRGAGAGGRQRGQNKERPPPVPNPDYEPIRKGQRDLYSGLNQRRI

B1: anti-GPRC5D-anti-CD3 bispecific molecule C3048-C3E7034 (bispecific antibody)
scFv: GQVQLVQSGAEVKKPGSSVKVSCKASGGTFSRYAISWVRQAPGQGLEWMGGIIPIFGTANYAQKFQGRVTITADQSTRTAYMDLGRLRSEDTAVYYCALEGFRDSLKRNPFDIWGQGTMVTVSSGGGGSGGGGSGGGGSQSVVTQPPSVSAAPGQKVTISCSGGTTNIGSNYVSWYQQLPGTAPKFLMYENNKRPSGIPDRFSGSKSGTSATLAITGLQTGDEATYYCSTWDSSLNTGLFGGGTKLTVLGGGGSEVQLVESGGGLVQPGGSLRLSCAASGVTFNYYGMSWIRQAPGKGLEWVASITNSGGRIYYPDSVKGRFTISRENTQKTLYLQMNSLRAEDTAVYYCTLDGRDGWVAYWGQGTLVTVSSGGGGSGGGGSGGGGSNFMLTQPHSVSESPGKTVTISCKRNTGNIGSNYVNWYQQHEGSSPTTIIYRDDKRPDGVSDRFSGSIDRSSKSASLTISNLKTEDEADYFCQSYSSGFIFGGGTKLTVLGAAAGAGGDYKDDDDKGAAAHHHHHH
notes: Tandem scFv
Usually EC50 (read off the curve) stands for the concentration needed to bring the measured effect to its halfway point. Lower therefore signals higher potency in that assay. Turning to B1, the binding result in the experiment with human GPRC5D was “binds”. The “EC50 (read off the curve)” value with human CD3 was about 0.4 nM.
